Results from US8546537B2, “Streptavidin having low immunogenicity and use thereof” (The University of Tokyo, priority 2009, dated 2013).
Positions count from the first letter of the chain named. Names may count otherwise.

B1: mcSA314: mutant core streptavidin with Y22S, Y83S, R84K, E101D, R103K, E116N (protein)
core streptavidin subunit: AEAGITGTWSNQLGSTFIVTAGADGALTGTYESAVGNAESRYVLTGRYDSAPATDGSGTALGWTVAWKNNSKNAHSATTWSGQYVGGADAKINTQWLLTSGTTNANAWKSTLVGHDTFTKVKPSAAS
B2: mcSA414: mutant core streptavidin with Y22S, Y83S, R84K, E101D, R103K, E116Q (protein)
core streptavidin subunit: B1 core streptavidin subunit with N104Q
B3: mcSA010: mutant core streptavidin with Y83A, R84K, E116N (protein)
core streptavidin subunit: B1 core streptavidin subunit with S10Y, S71A, D89E, K91R
B4: mcSA114: mutant core streptavidin with Y22S, Y83A, R84K, E101D, R103K, E116N (protein)
core streptavidin subunit: B1 core streptavidin subunit with S71A
B5: mcSA124: mutant core streptavidin with Y22T, Y83A, R84K, E101D, R103K, E116N (protein)
core streptavidin subunit: B1 core streptavidin subunit with S10T, S71A
B6: mcSA020: mutant core streptavidin with Y83A, R84K, E116Q (protein)
core streptavidin subunit: B1 core streptavidin subunit with S10Y, S71A, D89E, K91R, N104Q
B7: mcSA214: mutant core streptavidin with Y22S, Y83A, R84K, E101D, R103K, E116Q (protein)
core streptavidin subunit: B1 core streptavidin subunit with S71A, N104Q
B8: mcSA224: mutant core streptavidin with Y22T, Y83A, R84K, E101D, R103K, E116Q (protein)
core streptavidin subunit: B1 core streptavidin subunit with S10T, S71A, N104Q
B9: mcSA030: mutant core streptavidin with Y83S, R84K, E116N (protein)
core streptavidin subunit: B1 core streptavidin subunit with S10Y, D89E, K91R
B10: mcSA324: mutant core streptavidin with Y22T, Y83S, R84K, E101D, R103K, E116N (protein)
core streptavidin subunit: B1 core streptavidin subunit with S10T
B11: mcSA424: mutant core streptavidin with Y22T, Y83S, R84K, E101D, R103K, E116Q (protein)
core streptavidin subunit: B1 core streptavidin subunit with S10T, N104Q
B12: B5209B mouse-scFv-mcSA414: fusion of anti-ROBO1 monoclonal antibody B5209B mouse scFv and mcSA414, SEQ ID NO: 16 (protein, listed as Mus sp.)
chain: MAEVQLVESGGGVVQPGGSLKLSCAASGFTFSTYDMSWVRQTPDKRLELVATINSNGGSTYYPDSVKGRFTSSRDNAKNILYLQMSSLKSEDTAMYYCAREALLRPPYYALDYWGQGTSVTVSSAGGGGSGGGGSGGGGSDILDIQMTQSPASLSASVGETVTITCGASENIYGALTWYQRKQGKSPQLLIYGAINLADDKSSRFSGSGSGRQYSLKISSLHPDDVATYYCQNVLSTPFTFGSGTKLEIKAAGSSGSGSAAEAGITGTWSNQLGSTFIVTAGADGALTGTYESAVGNAESRYVLTGRYDSAPATDGSGTALGWTVAWKNNSKNAHSATTWSGQYVGGADAKINTQWLLTSGTTQANAWKSTLVGHDTFTKVKPSAASGARHHHHHH
B13: mcSA040: mutant core streptavidin with Y83S, R84K, E116Q (protein)
core streptavidin subunit: B1 core streptavidin subunit with S10Y, D89E, K91R, N104Q

System: not listed separately
Assay: Kinetics analysis of interaction between streptavidin protein and biotin using Biacore biosensor
Type: binding
Details: Biacore 3000, biotinylated mouse antibody captured, 1:1 binding model
Description: As a ligand (a substance to be attached to a sensor chip) used for a Biacore (registered trademark) biosensor, an anti-mouse IgG antibody (manufactured by GE Healthcare Biosciences) was used. On the other hand, as analytes (substances to be supplied to the flow channel system), a biotinylated mouse antibody and various types of mutant streptavidins were prepared, and intermolecular interaction was then analyzed using Biacore (registered trademark) 3000 (a biosensor based on the principle of surface plasmon resonance; manufactured by GE Healthcare Biosciences). The anti-mouse IgG antibody was immobilized on all of the flow cells of a CM5 sensor chip according to an amine coupling method. The amount of the antibody immobilized on each flow cell was 8000 RU. Subsequently, as references, non-biotinylated mouse antibodies were captured onto Flow Cells 1 and 3, and biotinylated mouse antibodies were captured onto Flow Cells 2 and 4. Various types of streptavidins were loaded in a running buffer (HBS-EP; manufactured by GE Healthcare Biosciences) on Flow Cells 1 and 2, or 3 and 4, at a flow rate of 20 μl/min for 2 minutes. Thereafter, dissociation of each sample was monitored for 7 minutes. Thereafter, a reproduction operation was carried out using a 10 mM glycine-HCl buffer (pH 1.7) (manufactured by GE Healthcare Biosciences), and repeat measurement was then carried out. Using the analysis software BIAevaluation ver. 4.1, a reaction kinetics analysis was performed on a 1:1 binding model based on the obtained sensorgram, so as to calculate an association rate constant (ka) and a dissociation rate constant (kd). A dissociation constant (Kd) was obtained from kd/ka.
The results of the kinetics analysis of the intermolecular interaction of a recombinant streptavidin and a biotin, which was carried out using Biacore (registered trademark) 3000 (a biosensor based on the principle of surface plasmon resonance; manufactured by GE Healthcare Biosciences), are as shown in Table 2.

| Molecule | Association rate constant ka | Dissociation rate constant kd |
| --- | --- | --- |
| B1 | 5.99 × 10^5 M^−1 S^−1 | 1.58 × 10^−4 S^−1 |
| B2 | 2.31 × 10^5 M^−1 S^−1 | 5.18 × 10^−5 S^−1 |
| B3 | – | 8.96 × 10^−5 S^−1 |
| B4 | 3.61 × 10^5 M^−1 S^−1 | 9.92 × 10^−5 S^−1 |
| B5 | 3.06 × 10^5 M^−1 S^−1 | 5.38 × 10^−5 S^−1 |
| B6 | – | 1.60 × 10^−4 S^−1 |
| B7 | 2.64 × 10^5 M^−1 S^−1 | 1.21 × 10^−4 S^−1 |
| B8 | 2.11 × 10^5 M^−1 S^−1 | 1.01 × 10^−4 S^−1 |
| B9 | – | 1.55 × 10^−4 S^−1 |
| B10 | 3.26 × 10^5 M^−1 S^−1 | 7.18 × 10^−5 S^−1 |
| B11 | 1.32 × 10^5 M^−1 S^−1 | 1.12 × 10^−4 S^−1 |

Same assay, conditions: Biacore 3000, obtained from kd/ka; read-out: Dissociation constant Kd

| Molecule | Kd [nM] |
| --- | --- |
| B1 | 0.264 |
| B2 | 0.243 |
| B3 | 0.225 |
| B4 | 0.274 |
| B5 | 0.176 |
| B6 | 0.427 |
| B7 | 0.459 |
| B8 | 0.481 |
| B9 | 0.399 |
| B10 | 0.22 |
| B11 | 0.845 |

Target: ROBO1 (Homo sapiens, UniProt Q9Y6N7)
Assay: Isothermal Titration calorimetry (ITC) of B5209B mouse-scFv-mcSA414 and ROBO1
Type: binding
Details: not given
From the text: By Isothermal Titration calorimetry (ITC), the interaction of B5209B mouse-scFv-mcSA414 and ROBO1 was subjected to […] analysis.

ROBO1, sequence (Q9Y6N7 26-1651, species assumed): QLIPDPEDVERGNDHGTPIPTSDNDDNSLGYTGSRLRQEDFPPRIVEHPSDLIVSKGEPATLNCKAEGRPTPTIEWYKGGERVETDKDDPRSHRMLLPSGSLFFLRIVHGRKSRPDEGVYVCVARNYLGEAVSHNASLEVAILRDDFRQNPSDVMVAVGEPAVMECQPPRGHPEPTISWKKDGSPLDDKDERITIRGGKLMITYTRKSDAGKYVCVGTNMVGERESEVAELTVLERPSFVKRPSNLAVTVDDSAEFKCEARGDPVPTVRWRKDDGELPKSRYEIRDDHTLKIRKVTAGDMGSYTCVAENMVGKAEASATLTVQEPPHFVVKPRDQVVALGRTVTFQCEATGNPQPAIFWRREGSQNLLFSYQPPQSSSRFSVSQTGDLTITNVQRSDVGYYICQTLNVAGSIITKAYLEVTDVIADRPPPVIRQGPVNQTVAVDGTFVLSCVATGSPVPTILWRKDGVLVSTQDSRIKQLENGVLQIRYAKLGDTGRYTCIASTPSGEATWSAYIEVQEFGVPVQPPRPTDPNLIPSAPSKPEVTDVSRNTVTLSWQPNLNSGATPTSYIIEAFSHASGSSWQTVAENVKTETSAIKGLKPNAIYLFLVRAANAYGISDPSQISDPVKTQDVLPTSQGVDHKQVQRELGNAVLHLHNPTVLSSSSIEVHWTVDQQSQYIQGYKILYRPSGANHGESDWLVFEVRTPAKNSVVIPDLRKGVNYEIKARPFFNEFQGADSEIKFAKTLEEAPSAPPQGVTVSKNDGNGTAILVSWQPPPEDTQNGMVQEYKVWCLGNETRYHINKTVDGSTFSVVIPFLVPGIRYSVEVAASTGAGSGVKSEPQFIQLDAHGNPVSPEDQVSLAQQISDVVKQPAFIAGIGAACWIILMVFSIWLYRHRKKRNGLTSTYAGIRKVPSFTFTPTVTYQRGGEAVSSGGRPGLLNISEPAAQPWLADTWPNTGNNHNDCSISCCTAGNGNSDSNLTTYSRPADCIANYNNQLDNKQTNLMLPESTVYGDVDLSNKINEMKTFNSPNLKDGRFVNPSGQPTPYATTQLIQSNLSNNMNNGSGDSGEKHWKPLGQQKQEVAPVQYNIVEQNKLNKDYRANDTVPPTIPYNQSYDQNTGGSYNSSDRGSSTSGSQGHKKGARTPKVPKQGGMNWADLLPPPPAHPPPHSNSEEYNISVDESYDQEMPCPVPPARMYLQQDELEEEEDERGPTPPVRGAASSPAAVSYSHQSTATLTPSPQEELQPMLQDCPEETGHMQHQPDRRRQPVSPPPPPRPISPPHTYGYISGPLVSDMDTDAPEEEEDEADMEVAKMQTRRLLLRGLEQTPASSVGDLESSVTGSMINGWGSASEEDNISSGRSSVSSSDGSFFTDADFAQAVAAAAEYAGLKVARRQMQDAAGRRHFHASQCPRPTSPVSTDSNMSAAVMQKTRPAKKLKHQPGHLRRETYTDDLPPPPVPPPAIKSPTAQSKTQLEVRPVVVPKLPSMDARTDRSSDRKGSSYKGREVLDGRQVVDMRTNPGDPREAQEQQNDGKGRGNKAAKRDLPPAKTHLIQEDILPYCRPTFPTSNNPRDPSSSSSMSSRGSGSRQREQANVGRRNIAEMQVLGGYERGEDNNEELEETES

| Molecule | binding ratio: molecules of ROBO1 bound to a tetramer | change in ΔH compared with scFV | reduction in affinity compared with scFV | ΔS value compared with scFV |
| --- | --- | --- | --- | --- |
| B12 | 2 | no significant change | approximately one order of magnitude | approximately 1/40 |

Same assay, conditions: 25° C., PBS

| Molecule | amount of enthalpy change (ΔH) [kcal/mol] | amount of entropy change (ΔS) [J/mol·K] |
| --- | --- | --- |
| B12 | -3.85 | −22 |

System: not listed separately
Assay: Differential Scanning calorimetry (DSC) thermal stability
Type: physicochemical
Details: PBS
Description: By Differential Scanning calorimetry (DSC), the thermal stability of B5209B mouse-scFv-mcSA414 was evaluated. PBS was used as a solvent. […] Accordingly, the temperature necessary for denaturation of the scFV domain of B5209B mouse-scFv-SA is assumed to be Tm 51.4° C., and the temperature necessary for the complete denaturation of a single molecule thereof is assumed to be Tm 108° C. Moreover, since the temperature for dissociation of a streptavidin domain tetramer was not detected, it is assumed that the streptavidin was completely denatured without the dissociation of a tetramer.

| Molecule | temperature for dissociation of a streptavidin domain tetramer | temperature necessary for denaturation of the scFV domain (Tm) [°C] | temperature necessary for the complete denaturation of a single molecule (Tm) [°C] |
| --- | --- | --- | --- |
| B12 | not detected | 51.4 | 108 |

System: not listed separately
Assay: Thermal shift assay of streptavidin proteins
Type: physicochemical
Details: at 100° C., 10 μM protein, 1×PBS, guanidine-HCl 0 to 2 M, SYPRO Orange
Description: The following 5 types of proteins, a native streptavidin, mcSA040, mcSA072, mcSA314 and mcSA414, which had been purified in accordance with Example 2, were subjected to a thermal shift assay (Vedadi, (2006), Proc Natl Sci USA., 103(43), 15835-15840). Each sample was prepared in a real-time PCR tube (PCR Tube Strip, Flat Cap Strip; manufactured by BIO-RAD), so that the samples could have the following final concentrations. That is, SYPRO Orange was 5000-fold diluted, the concentration of each protein was set at 10 μM, and the buffer was set at 1×PBS. Moreover, for the purpose of accelerating the heat denaturation of each protein, the concentration of a guanidine-HCl solution was set at 0 M, 0.5 M, 1M and 2 M as a final concentration. The reaction volume was set at 20 μl. The CFX96 Real-Time PCR detection system (manufactured by BIO-RAD) was used as a measurement device. As a program mode of the CFX96 Real-Time PCR detection system, a program mode for use in FRET detection was used. The reaction and detection were carried out by a program for increasing the temperature by 0.5° C. every 10 seconds.

| Molecule | thermal stability compared with native streptavidin |
| --- | --- |
| B13 | thermal stability equivalent to that of the native streptavidin |
| B1 | thermal stability equivalent to that of the native streptavidin |
| B2 | thermal stability equivalent to that of the native streptavidin |
